Measurements: patent publication US20110135573A1, “METALLOPROTEINASE 9 AND METALLOPROTEINASE 2 BINDING PROTEINS” (DYAX CORP., priority 2009, published 2011)

Assays:
[1] = molecular target: human MMP-2 (Biomol #SE-237) (human) (UniProt P08253); test: Ki,app, enzyme inhibition assay (fluorogenic peptide substrate)
[2] = molecular target: Human MMP-9 catalytic domain (BIOMOL, SE-244) (human) (UniProt P14780); test: cell-based or functional assay
Chain of Human MMP-9 catalytic domain (BIOMOL, SE-244) (human) (P14780 107-457 limits assumed): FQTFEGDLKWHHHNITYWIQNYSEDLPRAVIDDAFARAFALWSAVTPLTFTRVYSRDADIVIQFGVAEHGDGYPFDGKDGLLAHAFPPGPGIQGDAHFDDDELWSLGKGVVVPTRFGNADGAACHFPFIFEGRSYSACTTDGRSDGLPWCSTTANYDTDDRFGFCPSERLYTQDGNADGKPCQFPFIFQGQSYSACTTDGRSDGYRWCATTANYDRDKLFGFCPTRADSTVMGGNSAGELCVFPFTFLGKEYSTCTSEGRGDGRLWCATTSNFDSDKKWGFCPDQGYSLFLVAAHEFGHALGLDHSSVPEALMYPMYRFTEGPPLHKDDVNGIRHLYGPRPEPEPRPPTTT

Chain of human MMP-2 (Biomol #SE-237) (human) (P08253 110-452 limits assumed): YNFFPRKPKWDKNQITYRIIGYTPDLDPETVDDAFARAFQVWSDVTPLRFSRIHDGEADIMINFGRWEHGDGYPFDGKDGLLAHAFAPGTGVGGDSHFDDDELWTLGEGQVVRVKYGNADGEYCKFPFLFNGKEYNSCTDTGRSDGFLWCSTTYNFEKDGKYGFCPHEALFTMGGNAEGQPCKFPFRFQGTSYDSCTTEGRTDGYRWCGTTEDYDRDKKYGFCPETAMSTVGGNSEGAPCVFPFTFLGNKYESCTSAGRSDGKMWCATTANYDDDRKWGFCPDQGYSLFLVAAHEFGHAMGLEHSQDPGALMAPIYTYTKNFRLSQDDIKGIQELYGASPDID

Row | Ki [1] [nM] | IC50 (enzyme inhibition) [2] [nM] | Substance
1 | 6 | – | Anti-hMMP-2 R&D Systems pAb # AF902 (antibody)
2 | – | > 500 | Anti-hMMP-9 R&D Systems pAb # AB911 (antibody)
